Assay results published in the DeepSol protein solubility set.

Test: soluble on expression in E. coli; label from the status in PepcDB or PDB records

Sequence	soluble on expression in E. coli
MSLSIASADRWSDPMPTTATTFEEFRQRVDYSLLQALKPDPEATSDGNDHRPRPVFSGHWVPVRPTPIPEPKYVAHSFILFAELGISDDLAHNSDFTRLFSGDASVAAEPMHSWGWATGYALSIYGTEYIQQCPFGTGNGYGDGRAMSIVEGVFEGQRWEMQLKGGGPTPYCRGADGRAVLRSSVREFLAQEFMHALGVPTSRSLTLYRSEAETVRRPWYSDHSRSFDPDVMVDNQAAISTRVAPSFLRVGQIELFARRARDNAHPNAHDELRLIVQHLIDRNYRAEIDATLPFHQQVLELARLFRGRLTALVANWMRVGYCQGNFNSDNCAAGGYTLDYGPFGFCELFDPRFQPWTGGGAHFSFFNQPAAAEANYRMFWRSLRTLLEGDDAAQRELDQLNEGFAVAMQQQLEAMWASKLALPAYDETLVTELLQLLVAAKADYTKAFRLLSTIPDHVAELHPSFYLPSSEDLDQRWQTWLQRWRERITANGDLEETSAAMRRVNPAITWREWLIAPAYQQAEQGDNSLVLELQTLFSSPYSAPSTELAARYDQLRPQQFFSAGGIAHYSCSSEGHHHHHH	not soluble
MSLSIIVQKYGGTSVGSVQRIEHVANRIIATAASGKKVVVVVSAMGKTTDELVGLASEITDEPRKREMDMLLATGEQVTIALLAMALHKRGQEATSLTGWQAGMITESHHGNARILEVERARMDELLDKVHVVIVAGFQGIDQQGEIMTLGRGGSDTSAVAIAAALKAERCEIYTDVTGVFTTDPRVVKQARKLQTISYDEMLEMANLGASVLHPRAVEFAKNYEIPLLVASSMVDEPGTMIEEEGTMEQNLLVRGIAFENDVTKVTVHGLPNEIHTLPTLFAHLSAAGINVDIIIQNQTDSGMAISFSITQSSLKETLARLEELKGELSFQGIDYEEELAKVSIVGSGMVSNPGVAAKMFEILAANDIAIKMVSTSEIKVSAVIDEELMVLAVEMLHEQFKLHEEEPAVAVKVEGHHHHHH	soluble
MSLSIKLVAIDIDGTLLNSQHKITPRVKEALQKANEQGVRIVLCTGRPLPGVKEQLDELALYGENDFVITYNGSLVQATKDNTIISRYTLSYEDFLEIEMYSRKVGAHLHTIDDSAIYTANRNIGKYTIHEASLVNMPLKYRTVDEMTPEMNIIKMMMIDEPEVLDPAIAKLPLHFTEKYTTVKSTPFYYEIMNKNASKGNALAKLADHLGLNKDEVMAIGDNENDLSMIDYAGIGVAMGNATENVKTIADVHTTSNDEDGVAQIIEKMVLIEGHHHHHH	soluble
MSLSITVLADIHLDERYIETGSQEVFCRENQDRPEAKYSLPGCDSSESLVDAALASLQKEGPYNVMVVLGDIGPHSSESPEMTQRAIKAIADKLRRLFINKPPEQEMIILPVIGNNDVFPTYAVPTEDGDPQLLFVADQFKDLMTTEGYRQFQRRGYYSVPLSKHRVTFLVINANYYSVRHRELGEDPADQFKWVENQMIEAKAKGYRVILISHIPFGVNVYDESEALHSQYTDRIRSILRRYASTVLACLYGHYHSAYPLVLSAGEEPLVPMFICPSIAPSNYNNPGYYVFHISPLHEVDYDHYALNIEAANMQHREMHNSTELASFDCLYRFSQRYRPWLGLRALPTAQNIAHLYEHMLNDDFVWYQVRAATTSMLSERRLDFLQMAVDKAFMDAYNLSNEGHHHHHH	soluble
MSLSKMAALITQEIGSFRKPEYLSMEFHKIEGTEKFKELAERATIDTLKIFENTGLDNVGIGGEMYRWEMYEHPAERIKGLIFYGMVRSFDNRYYRKGSVIDKIERRGSFHMDEVEFVAKSTKKPIKIPITGPYTMMDWSFNDHYNDRHELAMEFARIINEELKEIQSKWPYISNGRKLEIQIDEPATTTHPDEMDIVVDSVNKSIEGIDAELSLHVCYSRDYRLLYDRIPELNIDGYNLEYSNRDTTDLGVEDAKRPGFQDIKYFNEVNESLQRKKFIGVGVTDVHIDFIEPVKLIEDRIKYVLNIIKDPELVKLNPDCGLRTRSRSIGEQKLRNMVIAKNNVLKDISEGHHHHHH	not soluble
MSLSKQIVILGAGYGGLLAALNVRKYYSKSEAQVTVINQYPTHQIITELHRLAAGNVSEQAVAMPLTKLFKGKDIDLKIATVESFSVDSKEIKLAGGTTLSYDALVVALGSKTAYFGIPGLEENSMVLKSAADANKIYKHVEDRIREYAKTKNEADATIVIGGGGLTGVELVGELADIMPKLAKSHGVNPKEVKLLLVEAGPKILPVLPDHLIERATTSLEARGVTFLTGLPVTNVAGNEIDLKDGQKLVANTFVWTGGVQGNPLIGESGLEVNRGRATVDAYLQSTSHKDVFVAGDSAVVFAPDGRPYPPTAQIAWQMGELIGYNLYAALEGKAFEEFAPVNSGTLASLGRKDAVATIGASNTPLKGLPASLMKEASNVRYLSHIKGLFSLAYEGHHHHHH	soluble
MSLSKRILSPLQNNGILGEFYGVIIRAIEENCGRLGMNVELKMLENFSESNGADGYIFIGGDLSEKTLKEIKSRKKPFVLVDHYIPGERVDCVISDGYDGAVYATNYLISKGFKRIVHVHGPLHPYGFKMRYDGYKDAMEKAGLMPRFYECDDTEEGTRKVIDIMLNSYGTPEAIFTSNDSIAFWVIKRLKEHNIKVPDDVSVIGFDDIVDAENFDPPLTTLRVFKYEMGCLACKRLHELLTGINPHPVRILVFTQFVKRKSTKEGHHHHHH	soluble
MSLSLALQYFKALSDETRLRLIHVLNRHELSVNELVSILEMGQSRVSRHLKILTGAGLLTSRRDGLWVFYSAAAEGDGRAFLDAVTPFVTTDMVLQADLDMAQKIIEERALKTRQFFNAIAEDWDELNREVLGGFDLAGAVAEAMPQCETAVDLGCGTGSVIERMLQRSQQVIGVDGSPRMLELARRRFVEGAERVSLRIGELDHLPLRDGEADFASINMVLHHLSDPGVALGEIRRVLRLGGQLMVTDFDRHDNERMRSDYGDRWLGFEGVQLEGLLREAGFTVRECRRQGVAKGLALHLMLAEKTQEGHHHHHH	soluble
MSLSLGISCFLVKKKSILNKDFESKEKLSSQTFEPEKVEKFLWDIYDKYGFDFTEYRKDSIIRRIKISMLRYCMTNFDEFSHLALTDQDVFEQLFLDFSINTTNFFRDPEVFMFLREKVLLFLDSYSHIRIWCVGCSNGKEPYSLAIILKELGMLHKVQIYATDINPYVIEEAKNGLYSVSTINTDIANYKKSGGSKNFTDYFEVNGNYMKVKDDFKDNILFFQHSVIEKGILNEFQMILCRNVMIYFDIPLQKKVLRHFYNSLDSGGFLVMGKSEGMLLNNGYEYFADYNEKYSVYRRKEGHHHHHH	not soluble
MSLSLRDEALEMHKRNQGKLEVKPNVKVTNKEELSLAYSPGVAEPCKDIYEDKRKVYDYTIKGNTVAVITDGTAVLGLGNIGPEASIPVMEGKAVLFKSFAGINGVPIALNTTDTEEIIKTVKLLEPNYGGINLEDISAPRCFEIEERLKKETNIPVFHDDQHGTAIVTMAGLVNALRVVNKDIAKIKVVLNGAGAAGIAIVKLLYAYGVRNMVMCDSRGAIFEGRSYGMNPTKDVVAKWTNKDKIEGSLEEVVKDADVFIGVSVANALSQDMVKSMADNPIIFAMANPNPEIIPDDAKAAGARVVGTGRSDYPNQINNVLAFPGIFRGALEVEATHINEEMKKAAVEAIADLIDSSELNEDYCIPGPFDKRVAPSVARNVAKAAMESGVARIEVDPQDVYDKTMKLTDLQEGHHHHHH	soluble
MSLSLWQQCLARLQDELPATEFSMWIRPLQAELSDNTLALYAPNRFVLDWVRDKYLNNINVLLNDFCGMDAPLLRFEVGSKPLVQTISQPAQSHHNPVSVARQQPVRMAPVRPSWDNSPVQAEHTYRSNVNPKHTFDNFVEGKSNQLARAAARQVADNPGGAYNPLFLYGGTGLGKTHLLHAVGNGIIARKPNAKVVYMHSERFVQDMVKALQNNAIEEFKRYYRSVDALLIDDIQFFANKERSQEEFFHTFNALLEGNQQIILTSDRYPKEINGVEDRLKSRFGWGLTVAIEPPELETRVAILMKKADENDIRLPGEVAFFIAKRLRSNVRELEGALNRVIANANFTGRSITIDFVREALRDLLALQEKLVTIDNIQKTVAEYYKIKIADLLSKRRSRSVARPRQMAMALAKELTNHSLPEIGDAFGGRDHTTVLHACRKIEQLREESHDIKEDFSNLIRTLSSLEHHHHHH	soluble
MSLSNHSSDIEVGHSMNLTNHFLVAMPSMKDPYFKRSVIYICEHNQDGAMGLMINAPIDITVGGMLKQVDIEPAYPQSHQENLKKPVFNGGPVSEDRGFILHRPRDHYESSMKMTDDIAVTTSKDILTVLGTEAEPEGYIVALGYSGWSAGQLEVELTENSWLTIEADPELIFNTPVHEKWQKAIQKLGISPAQLSSDAGHEGGSHHHHHH	soluble
MSLSNNTINIALIGYGFVGKTFHAPLIRSVPGLNLAFVASRDEEKVKRDLPDVTVIASPEAAVQHPDVDLVVIASPNATHAPLARLALNAGKHVVVDKPFTLDMQEARELIALAEEKQRLLSVFHNRRWDSDYLGIRQVIEQGTLGAVKHFESHFDRFRPEVRVRWREQNVPGSGLWFDLGPHLIDQALQLFGLPQSVQGNIATLRDGAEINDWAHVVLNYPAHKVILHCSMLVAGGSSRFTVHGDKGSVIKARADQQESQLLAGVVPGSADWGQDDDPLVIYDASLQAHAQATPQGDQRQYYMLIRDALKGQIANPVPPVEALAVMAVLEAAVRSAESGMVQTLDLSDDERNTLREGHHHHHH	soluble
MSLSNTGINCPFDCGLCPRHRSHTSLINIVLTNRCNLSCWYCFFYAREGEPIYEPTLEQIRMMLRNAKKEHPIGANAVQFTGGEPTLRDDLIEIIKIAKEEGYDHIQLNTDGIKLAFDPELVKKLREAGVNTLYLSYDGMTPQTNWKNHWEIPLIFENVRKAGGPGIVLVPTLIRNINDHEAGAIINFGLNHLDIVRGVNFQPISLVGRVPRKERQRFRITIAGAIKKIEEQTNGVIAKEDWYPIPIAGHIARFFEAFTGRKYYMTSHFACGAATYVFLDREEKKVIPIPRFIDVDGFVEFLVEKAEEIEKARFKSLAKLKAIGETIFVKFKQFYDEKNAPKGLDVLGLIKNAFVHGTYDALGKFHMNTLFIGMMHFMDEYNYDVERVERCVIHYAMPDGRIVPFCTFNVIPEIYRDKVQRQFSYSWEEWKKLHPDEGHHHHHH	not soluble
MSLSQLFKSFDASEKTQLICFPFAGGYSASFRPLHAFLQGECEMLAAEPPGHGTNQTSAIEDLEELTDLYKQELNLRPDRPFVLFGHSMGGMITFRLAQKLEREGIFPQAVIISAIQPPHIQRKKVSHLPDDQFLDHIIQLGGMPAELVENKEVMSFFLPSFRSDYRALEQFELYDLAQIQSPVHVFNGLDDKKCIRDAEGWKKWAKDITFHQFDGGHMFLLSQTEEVAERIFAILNQHPIIQPEGGSHHHHHH	soluble
MSLSRKWLNKVKWDDHGLVPVIVQEQGSNDVLMFAFMNREALQKTVETGEAVFWSRSRKRLWHKGEESGHIQQVHEIRLDCDEDVVLLRVTQVGGIACHTGRHACFFQKFEGTAEDGDWHTVEPVLKNPDDIYAGKPGHNHEEGHHHHHH	not soluble
MSLSRNSDLHMHSTASDGGYSPTELMEKCHQANLKFVALTDHDTVNGIEEAKQTAHRLGFILIPGIELSTKASGQSVHMLGYGIDWKNDTLKRRLDRQQDIRKQRLEQILLKLKAAGVPLEQDAVLRYADGGAIGRPHVAKALMDKGYVRSVQEAFEHYLAEGRPCYVKRQEYISVEQAIAWIHQAGGVAIVAHPGYYDLDDQLIGWVREYGLDGIEVYHRDHSREVVAHYEQLCKRMEAETGRRLLRTGGSDFHHESYGRTAAPLGTTRIPDQLTYELLHDLERKKTRAEGHHHHHH	soluble
MSLSSITNVAATAGVSIATVSRVLSGKRGKDDDIARRVREAAKQLGYSVNYAASALRSDVTKTIGLVIPSATEPFSAQLLDEIEPTIDTESQQLLLGIGATQEAQAERIESLVNRHVDGLIVVPAAGADLAGTLNQYANTLPIVQICGRQTAPRVSVVGIDENAAMEAIVKHLAEQGIASAAYMAGDELSFESAELFATFHTHMRTYGLVTSENWNQFGERTVQRGFDCAMRLFNGPLVQPEAVVCADDAIAFGVMVAFDALGIRVPEDVLVVGYHDSAIARTTMPRLTSVRAPFERIVSECLRLLASGPAGGAAETAAAPGGSVRAPRVMLAPQLIVRDSSVFREGHHHHHH	soluble
